Results taken from US20180057551A1 (AMYLONIX, published 2018).

Biological target: T1, anti-ABD goat antibody (produced in-house)
T1 construct: also called Anti-ABD surface
Assay: SPR Biacore 2000, periplasmic sample over immobilised anti-ABD goat antibody
Description: A selection of Aβ peptide binding polypeptides was subjected to an analysis of the response against biotinylated hAβ₁₋₄₀ using a Biacore 2000 instrument (GE Healthcare). Biotinylated anti-ABD goat antibody (produced in-house) and N-terminally biotinylated hAβ₁₋₄₀ (AnaSpec cat. no. AS-24648) were immobilized in separate flow cells on a streptavidin coated chip (Biacore Sensor Chip SA, cat. no. BR100032) using HBS-EP as running buffer (0.01 M HEPES pH 7.4, 0.15 M NaCl, 3 mM EDTA, 0.005% v/v Surfactant P20, GE Healthcare, cat. no. BR100188). The ligand immobilization levels on the surfaces were approximately 2000 RU for the anti-ABD antibody and 225 RU for hAβ₁₋₄₀. One flow cell surface on the chip was used as blank during analyte injections. HBS-EP was used as running buffer and the flow rate was 25 μl/min. The analytes, i.e. periplasmic preparations of Aβ peptide binding polypeptides as described above, were each diluted 15× in HBS-EP buffer and injected for 10 min, followed by dissociation in running buffer for 5 min. After dissociation, the surfaces were regenerated with 2 pulses of 10 mM glycin pH 2.0. […]
The interactions of a subset of Z variants with anti-ABD goat antibody and hAβ₁₋₄₀ were analyzed in a Biacore instrument by injecting dilutions of periplasmic samples.

Response RU: 19.8 RU
B1: albumin binding domain GA3 from streptococcal Protein G (ABD), periplasmic control (other)
chain: LAEAKVLANRELDKYGVSDYYKNLINNAKTVEGVKALIDEILAALP
notes: periplasm containing ABD only; also called negative control; blank control
